test: soluble on expression in E. coli; label from the status in PepcDB or PDB records

| Sequence | soluble on expression in E. coli |
| --- | --- |
| MSLSDDSMIDAPLTRADAVSEKIVFQDDFNQVDSIPDRNKWSLCKKGSPAWSKYLSESYDQAYVHDGKLVLVAEKVNGVYKTGGVQSLGKAEFQYGKIEICARFTKTAKGGWPAIWMMPAKPVYSGWPACGEIDIMEQLNHDGIVYQTIHSHYKNDLGFTKPVPTKTVSYNKGQFNIFGIEWTPEALTFKVNGATTLVYPNLHLADESVKKQWPFDTSFYLILNYALGGPGTWPGTIMDSELPAKMEIDWVKVSQPRGREGHHHHHH | soluble |
| MHHHHHHLESSGDFSLLSSPINREKNGTEIVKFSIHPYKGTVIRLGEEILPFKVLEMDKNIALVEMAIPVYKDEKEIELKLSSPGFQNSSYRIRKPEELNEKLIALDKEGITHRFISRFKTGFQPKSVRFIDNTRLAIPLLEDEGMDVLDINSGQTVRLSPPEKYKKKLGFVETISIPEHNELWVSQMQANAVHVFDLKTLAYKATVDLTGKWSKILLYDPIRDLVYCSNWISEDISVIDRKTKLEIRKTDKIGLPRGLLLSKDGKELYIAQFSASNQESGGGRLGIYSMDKEKLIDTIGPPGNKRHIVSGNTENKIYVSDMCCSKIEVYDLKEKKVQKSIPVFDKPNTIALSPDGKYLYVSCRGPNHPTEGYLKKGLVLGKVYVIDTTTDTVKEFWEAGNQPTGLDVSPDNRYLVISDFLDHQIRVYRRDGF | soluble |
| MNKAKPKVVWASVYEGSAYIAPKDSYVDNMIKMAGGINACASIDSNEGRVSIEQLHEVAKDADIFVYSSSSDYAPNLDSIKSSAPVLADLDVVKNGNLWVFAPDYYQSVDKTDELIVDLVEMFHPGTTGEKIKHYINYDKLEHHHHHH | soluble |
| MTHQDTIASEDGSDINILLNTVQNAKALVIFAHGAGANMSHEFMNETSRLLNHLGINVLRFNFPFMDKRALTGKKYPPDRMPKLLLCYETVIEYVVDKKLSHQLPLFIGGKSMGSRVAASLVADSDLLKSRLLNHISGVFCIGYPFHPAKKPEKLRLEPLVDANKPVLIVQGDRDTLGNKVEIASYRLAEHCQCVFLEDGDHSLKPRVKSGFTHQAHMQSAVEEIVTFIERVTISS | not soluble |
| MGSDKIHHHHHHMGKSFYRFRSTNNLLDGYSELEKQTIYFARPEQLNDPMEGYRDIYWRGDLIAWKNLFAHYVFCLERISSLLLISGEDNKIDADHIPVFGSTDDLPTDSYKNLFRKIKARFLENKYVSALILAISKRSTPIRREELAFYYDCMHIPALKLIFDVYIEENLSQEGNRIDDKAFAGISGVVSNDFVGLLEKSITDGEADQVIVNELFKAKSHIKQQSNLIHKHNGTISSSKPNKNLLMIDFPSLYLNRLEEITFPKWYTSCFMSECKNSSVWGHYGNNHTGMCLIFDSENINDRSYIKLNGITGWGSSGPIYGDKAMEFHPIDYKKGFGEIDFFTSIGSLPIPVLNTMWYMDEAGNTSVCANKMNVDEDAWRSNYWSNFIRGLTVKSKDWEYENEYRLILHSSITDLSEKDRRTLTYDFSSLKGIIFGINTKEEDKLKTIKIIEDKCNKHSRSDFKFYQAYYCADENCIKSVEMSLVKFSGNV | not soluble |
| MQARWIGNMMFHVRTDSNHDVLMDTKEEVGGKDAAPRPLELVLTGLMGCTGMDVVSILRKMKVIDQMKDFRIEIEYERTEEHPRIFTKVHLKYIFKFDGEPPKDKVEKAVQLSQEKYCSVSAILKCSSKVTYEIVYEN | not soluble |
| DEGPLMMNAFEMITLSQGLNLSALFDRRQDFVKRQTRFVSRREPSEIIANIEAVANSMGFKSHTRNFKTRLEGLSSIKAGQLAVVIEIYEVAPSLFMVDVRKAAGETLEYHKFYKKLCSKLENIIWRATEGIPKSEILRTITF | soluble |
| MVRKVLIIGGGFSGMAAAIQMRKAGIDVDLVEIDPNWRPEGAGITVNGPTLRALETIGVFDEFARRGFTSSGVDLFTPTGQKIGEIPTPKVAGSDVPGGGGIMRPELGRILADATRGSDVSVRVGCTYTAIEQTGDQVTVAFTDGTTDTYDLVVAADGVHSKTRERFFPEVKPPQYIGQGVWRTVLPRPAEIVRPRMWLGGTVKVGVNPVSQTHLYMFITEARPEKTNLDPATFPDLVTSMLKSFPDPIVQSLIPHVFAAEAAIDYRPLANLLVPAPWNRGRVILIGDTVAATTPHLASGAGIGIESGIILAEELAKAATLQDAFDGFHARRWERCRMVIENSERLCRIEMENGDKAEHARIMRESVMALTQPILEHHHHHH | soluble |
| MGSDKIHHHHHHMESYKGNKTTRKQIVSSIQMDIIKNRKIGEKLPSESEYANLFGTARSTVQKALRDLETMQLIEKVQGKGSFVIFKHPKIEMFNFRGFSEYAHQIGATPITKLIKKKKIDNGHKMLLKRLRSIKINDEIAPLTFDESILSLDDFPGLDQYNFEKGSLYDVLRNKYNTYPAIANLEVIPVAPEEEISNLLRVSKGNPLLKVNGFVYDSNSEIMEKVGIIYSDQARFKFTLGI | not soluble |
| PKIAGIDLGTTYSSIGIYHAVTGETIILPDDLGKKSVPSVVAFLPNGTVLIGTRATEQQEHNPKRTIYDAKRFIGRNFEKNNKDFLSDQKRYPFKINLDSEGKAFFEIPLDSGTKNVYPEEIGSLIIGYLKSAAAKHLGVTLGQVVISCPAEFNEKQRNFTAKAAEIAEMEVRRVISEPTAAALAYGLHKKQGVENVVVVDLGGGTLDVSVLWLQGGVFVTQAMAGNNRLGGQDFNDRVQKHLISKIAEKFGKTIDNKEDIQQIRMEVEKGKIRLTNVPSTTISLNLKTVGKWNYELTRDEFETLNGDLLKAIELPITAALADANLDTADVDEIVLVGGSTQVPAVRKIVGRFFKKSANYGVDPELAVVTGASVQAGVIGGGWPLQVAAMELPAKRRKRHFFTEEQKENEKDRTISEL | not soluble |
| MGSDKIHHHHHHMKQDRRKLFVLDTNVLLHEPLAIYSFKEHDVVIPMTVLEELDNIKDRKHDISRDARVAIRALEDILGGPTTPEQILKGVPLPSREGHLDVAGSLSIFPDHQVDFIAGALPGDNNDNLIINVALHLQKVHKPRTVVLVTKDINMRLKAKGAGIEKVEDYRTDQLIDDIRFLAKGFYQFEGDFWSKLDKVTTERQGKHTIHHVPIAALGKEAFYLNQYLLDDEANFCGRITGKTDTQLDIIDLGRDRLNHIEAWGIKPKNIYQGMALNALLDPEIDLVILTGPAGCGKTLLAIAAALELVVERKRYDKIIVTRNTPEIAESIGFLPGTEEEKMAPWLAAITDTLEVLHKNDVNPSGSMNYIMEKANIQFKSINFMRGRSIQNSVVLLDECQNLTASQIKTMITRMGEGTKLICCGNLSQIDSTYLTAVTSGLTYIVERFKDFEGSANVYLNGVVRSRLAEYAEEHL | not soluble |
| CPRLIRFVMEEDYANLPPLRRFLRRAGVIPISASNRSSIRRAFNDVEEALNEGHIVCIFPEGRLTSDGEMNDFMRGIDIILRRSPVPVIPMALKGLWGSYFSRAKGRACRGFPTRFWSKLEIEAGEPVDPSSATAQTMFEKVHALRGDWR | not soluble |
| MSLDSGRNGGGPSVFRRDLLRSIGAAGLAGLAGCGGSEGVTDGDGTPAPTPVGNFPVSGDSVTFGFNVASSGAYSTAGKQEIRGFKLAVKHINNGGGWVTSEKYNSPLDGDGLLGKDVEFVVEDTGGSSDTARSNAQRLVDGEEVIMLAGGTSSSAGLANQEVAAQNQVIYMATMANTNSLTGADCNRYSFREMFNNHMAAEALAPALSDEFGKNANYVKIFQDNDWGQTLRDDMDAALGNVGWAPVWDTTAQVGTSDYSQYAADIKSVDFDVIVLGLGGLDAVNALRAFRDEFPESNIVLPMASREIAETAGGAIEGVIGTVAWSRAINSPLSNTFRETFREEYGSSTGSSKSAAPSGAAHIAYTQALQYASAVERAGTFNPIDVIGALEGHEYDAGLGPQTLRACDHQAMRQVPVVRGKSEIQQSYGTYYDLIGEPADVQYACDSGPAANCSLGGSEGHHHHHH | not soluble |
| MQKSKRNAKKKAVSTREKSARSSRGTNKSQRSARSKMAKPRTAETREDAYSCHRTMEEKSTNQQYSALSVRSETTSKVKKLPSKLDASLSARKKGKKESNEEDKKMRDSERQKREKKEVPKEMRQSMMGSVFEEIEGPVSPAPLEKDENKMEWKIDVDPVVLTGDQRMSDVLGKMKDLKKNSGWKKCKVLKANEKTPDNDDEPTEESIYLSARVLQLVKMESLISKEVSKEDQEILRGYCRSNDHKDKVEPIFEAIAVSILEKVASKNEFIRNVSIPGQLRMFAVDENKSKFSTMALLIVRCDLFYYSWNKPALDDEDQLDPTWANMTRRPSVTPPDSQ | not soluble |
| MAHHHHHHMNSPVVKMKAVKNDVEIDNMKQAHILDGLALLQFFHWCEQKRKTKELFNETEMSLRHKVDYFRSTKKNFIFPSFSTISASGPNAAVIHYECTDKTNATIKPAIYLLDSGGQYLHGTTDVTRTTHFGEPTAEEKRIYTLVLKGHLRLRKVIFASYTNSSALDFIARENLFNNFMDYNHGTGHGVGLTLNVHEGGCSIGPVGGAPLKKNMVLSNEPGYYMKDKFGVRIENMQYVISKEITDTTEYLSFDDLTMYPYEKKLLDFSLLTNQEIKELNEYHTTIRNTLLPLVKQSPQEYGESVEKYLIEITEPIAIHNN | not soluble |
| MIVGSHQQYVVPSYSAAYVPSAYAYPSVYSPYVAAAAYPSVWAWGSNKNKDDAAPRAFARPSALLNNQKPTTA | not soluble |
| MAPSGGQEAQICDSETFGDSDFVVVANRLPVDLERLPDGSTTWKRSPGGLVTALEPVLRRRRGAWVGWPGVNDDGAEPDLHVLDGPIIQDELELHPVRLSTTDIAQYYEGFSNATLWPLYHDVIVKPLYHREWWDRYVDVNQRFAEAASRAAAHGATVWVQDYQLQLVPKMLRMLRPDLTIGFFLHIPFPPVELFMQMPWRTEIIQGLLGADLVGFHLPGGAQNFLILSRRLVGTDTSRGTVGVRSRFGAAVLGSRTIRVGAFPISVDSGALDHAARDRNIRRRAREIRTELGNPRKILLGVDRLDYTKGIDVRLKAFSELLAEGRVKRDDTVVVQLATPSRERVESYQTLRNDIERQVGHINGEYGEVGHPVVHYLHRPAPRDELIAFFVASDVMLVTPLRDGMNLVAKEYVACRSDLGGALVLSEFTGAAAELRHAYLVNPHDLEGVKDGIEEALNQTEEAGRRRMRSLRRQVLAHDVDRWAQSFLDALAGAHPRGQG | not soluble |
| GGGSGGSKKDEHKQQGELYMWDSIDQKWTRHYCAIADAKLSFSDDIEQTMEEDNPLGSLCRGILDLNTYNVVKAPQGKNQKSFVFILEPKQQGDPPVEFATDRVEELFEWFQSIREITWKIDTK | soluble |
| MKIALIQQKFHLNKEQTIKKTCEFIEEASKQGAELVCLGELHQSEYFCQSENVDFFDYANDYEKDVKFWANIARKNQIVLIASLFEKRSAGLYHNTAVVFEKDGSIAGKYRKMHIPDDPCFYEKFYFTPGDLGFEPINTSLGKLGVLICWDQWYPEAARIMALKGAEILIYPTAIGWFDKDKDEEKQRQLNAWLGVQKGHAIANGLYVVAINRVGFEKDVSGVEEGIRFWGNSFVFGPQGEELCLLDSQNECVKIIEIDKKRSENVRRWWPFLRDRRIEYFTDLTKRFID | soluble |
| MLKTISPLISPELLKVLAEMGHGDEIIFSDAHFPAHSMGPQVIRADGLLVSDLLQAIIPLFELDSYAPPLVMMAAVEGDTLDPEVERRYRNALSLQAPCPDIIRINRFAFYERAQKAFAIVITGERAKYGNILLKKGVTP | soluble |
| MKVDKRIEAVTKFLESLGTVEDYTEDVAVKYRNLILKSYELYENKYNDTVDDSLCIEVWSNGTYVVTNEDLSFDCESEEDLQKLKELFVNTSFYITINELNKVGHKATLSVKAKAKNLRKLGQLIKEYRSCNCKYLKDKVTEIIGDDGRVYLDRISERMD | not soluble |
| MKQYIPFIRKDPVVPVIRLQGVIASGPRGGLSDQGLAAVIEKAFRRGKPAGVALVINSPGGSPVQSSLIAARIRRLASEKGVRVHAFVEDVAASGGYWLACAGDEIWVDESSLVGSIGVIFSSFGFHEFMARNGIERRVHTAGRSKSLADPFLPEKPEDVERLKALQEPIHRAFIEYVKRHRGTRLDLNADLFNADVWTGQEAVRLGLADGVAHLVPKLQENYGDKVRLVPYGQRRPFLQRLGMSLAGQALAEVENRALWARYGLLEHHHHHH | not soluble |

From the DeepSol protein solubility set
